From patent US20110020369A1
Each block holds one binder with its values, some of them ahead of it.

How the values were obtained:
[1] = molecular target: hTSLPR-Ig fusion (human) (UniProt Q9HC73); experiment: SPR BIAcore T100, huTSLPR-hIg amine-coupled on CM5, antibody as analyte, bivalent analyte model, n = 2
[2] = molecular target: hTSLPR-Ig fusion (human) (UniProt Q9HC73); experiment: SPR BIAcore T100, huTSLPR-hIg amine-coupled on CM5, antibody as analyte, bivalent analyte model, n = 6
[3] = molecular target: hTSLPR-ECTO-His (human); experiment: ELISA, plate coated with TSLPR 50 ng/well, HRP goat anti-mouse detection

Sequence of hTSLPR-Ig fusion (human) (Q9HC73 23-231): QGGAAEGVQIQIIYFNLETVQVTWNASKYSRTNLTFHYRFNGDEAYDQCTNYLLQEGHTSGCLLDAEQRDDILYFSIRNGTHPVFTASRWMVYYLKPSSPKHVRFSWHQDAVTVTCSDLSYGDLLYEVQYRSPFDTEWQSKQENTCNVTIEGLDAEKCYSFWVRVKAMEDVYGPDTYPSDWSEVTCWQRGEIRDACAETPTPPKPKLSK

Kd [1]: 0.008 nM
koff [1]: 1.5e-05 s⁻¹
kon [1]: 1.81e+06 M⁻¹ s⁻¹
B1: rat anti-human TSLPR antibody 18B3 (antibody, V domains shown)
VH: EVQLVESGGGLVQPGRSLRLSCVASGFTFNNYWMTWVRQAPGKGLEWVASITDTSGRTYYPDSVKGRFTISRDHAKSTLYLQMNSLRPEDTATYYCTKTLGGIPRDWGQGVMVTVSS
VL: NIQLTQSPSLLSASVGDRVTLSCKGSQNINNYLAWYQQKLGEAPKLLIFKTNILQTGIPLRFSGSGSGTDYTLTISSLHCEDLATYYCYQFNNGFTFGPGTKLELKR

Kd [1]: 0.102 nM
koff [1]: 0.000136 s⁻¹
kon [1]: 1.34e+06 M⁻¹ s⁻¹
B2: chimeric anti-human TSLPR 13H5 antibody (antibody, V domains shown, not shown: a dimerising Fc or GST)
VH: QVLLKQSGPSLVQPSQSLSITCTVSGFSLSRYGVHWVRQSPGKGLEWLGVIWRSGSTDYNAAFMSRLSITQDNSKSQVFFNMNSLQSDDSAIYYCAKKAFYVMDYWGQGTSVTVSS
VL: DIQMTQTTSSLSASLGDRVTISCRASQDISIYLNWYQQKPDGTVKLLIYYTSRLHSGVPSRFSGSGSGTNFSLTITNLEEEDIATYFCQQGNTLPWTFGGGTKLEIKR

Kd [2]: 0.037 nM
koff [2]: 7.8e-05 s⁻¹
kon [2]: 2.12e+06 M⁻¹ s⁻¹
EC50 [3]: 0.0106 µg/mL
B3: mouse anti human TSLPR antibody 13H5 (antibody, mouse IgG1, V domains shown)
VH: B2 VH
VL: B2 VL

Kd [1]: 0.079 nM
koff [1]: 0.00012 s⁻¹
kon [1]: 1.52e+06 M⁻¹ s⁻¹
EC50 [3]: 0.0162 µg/mL
B4: mouse anti-human TSLPR antibody 70E8 (antibody, mouse IgG1, V domains shown)
VH: DVQLQESGPDLVKPSQSLSLTCTVTNYSITSGYSWPWIRQFPGNKLEWLGYIHSSGRTNYNPSLKSRISITRDTSKNQFFLQLNSVTPEDTATYYCARSQLGLVFFAYWGQGTLVTVSA
VL: DIVMTQSQKFMSTSVGDRVSVTCKASQSVGANVAWYQQIPGHSPKVLIYSASYRFSGVPDRFTGSGSGTDFTLTISNVQSEDLAEYFCQQYNSYPYTFGGGTKLEIRR
